# Test results: the supplement of paper PMC10567573
# B1: DCAF4 (parent)
# chain: PGIDRPGMLCSFRIPGAWSCAWSL
# B2: DLC1 (parent)
# chain: NDDSADYQHFLQDCVDGLFKEVKE
# Variants of: B1
# Experiment: protein stability index of a GFP-peptide fusion (GPS, HEK-293T) (PSI 1-6); higher = more stable
# Details: c terminus: a fixed tail appended
# 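Further: lentivirally expressed fusions sorted by FACS into six bins by GFP to DsRed ratio, PSI derived from sequencing read proportions per bin multiplied by bin number.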
row,Variant,protein stability index
1,PGGDRPGMLCSFRIPGAWSCAWSL,1.51
2,PGKDRPGMLCSFRIPGAWSCAWSL,2.3
3,PGVDRPGMLCSFRIPGAWSCAWSL,2.56
4,PGHDRPGMLCSFRIPGAWSCAWSL,2.39
5,PGADRPGMLCSFRIPGAWSCAWSL,2.91
6,PGMDRPGMLCSFRIPGAWSCAWSL,2.5
7,PGEDRPGMLCSFRIPGAWSCAWSL,4.15
8,PGSDRPGMLCSFRIPGAWSCAWSL,2.97
9,PGPDRPGMLCSFRIPGAWSCAWSL,2.33
10,PGNDRPGMLCSFRIPGAWSCAWSL,4.44
11,PGLDRPGMLCSFRIPGAWSCAWSL,3.31
12,PGIDRPGMNCSFRIPGAWSCAWSL,2.9
13,PGIDRPGMGCSFRIPGAWSCAWSL,1.77
14,PGIDRPGMPCSFRIPGAWSCAWSL,2.5
15,PGIDRPGMTCSFRIPGAWSCAWSL,1.7
16,PGIDRPGMECSFRIPGAWSCAWSL,2.62
17,PGIDRPGMRCSFRIPGAWSCAWSL,3.61
18,PGIDRPGMKCSFRIPGAWSCAWSL,3.08
19,PGIDRPGMSCSFRIPGAWSCAWSL,2.32

row,Variant,protein stability index
1,PGIDRPGMQCSFRIPGAWSCAWSL,1.76
2,PGIDRPGMHCSFRIPGAWSCAWSL,2.92
3,PGIDRPGMVCSFRIPGAWSCAWSL,2.85
4,PGIDRPGMWCSFRIPGAWSCAWSL,2.82
5,PGIDRPGMICSFRIPGAWSCAWSL,3.09
6,PGIDRPGMFCSFRIPGAWSCAWSL,2.7
7,PGIDRPGMDCSFRIPGAWSCAWSL,3.26
8,PGIQRPGMLCSFRIPGAWSCAWSL,2.42
9,PGIPRPGMLCSFRIPGAWSCAWSL,2.56
10,PGICRPGMLCSFRIPGAWSCAWSL,2.61
11,PGIMRPGMLCSFRIPGAWSCAWSL,1.91
12,PGINRPGMLCSFRIPGAWSCAWSL,2.05
13,PGIERPGMLCSFRIPGAWSCAWSL,2.38
14,PGIYRPGMLCSFRIPGAWSCAWSL,2.27
15,PGIWRPGMLCSFRIPGAWSCAWSL,2.65
16,PGIFRPGMLCSFRIPGAWSCAWSL,2.74
17,PGIIRPGMLCSFRIPGAWSCAWSL,3.29
18,PGITRPGMLCSFRIPGAWSCAWSL,2.56

# Variants of: B2
# Experiment: as above
# Details: c terminus: a fixed tail appended
row,Variant,protein stability index
1,NDDSADYQHFLQDCQDGLFKEVKE,4.74
2,NDDSADYQRFLQDCVDGLFKEVKE,2.86
3,NDDSADYQDFLQDCVDGLFKEVKE,2.83
4,NDDSADYQHFLQDFVDGLFKEVKE,2.49
5,NDDSADYQHFLQDVVDGLFKEVKE,3.21
6,NDDSADYQHFLQDCVSGLFKEVKE,3.22
7,NDDSADYQHFLQDCVRGLFKEVKE,4.08
8,NDDSADYQHFLQDCVYGLFKEVKE,2.21
9,NDDSADYQHFLQDCVQGLFKEVKE,2.31
10,NDDSADYQHFLQDCVDGLFKRVKE,2.55
11,NDDSADYQHFLQDCVDGLFKLVKE,1.67
12,NDDSADMQHFLQDCVDGLFKEVKE,2.08
13,NDDSADYEHFLQDCVDGLFKEVKE,2.62
14,NDDSADYFHFLQDCVDGLFKEVKE,2.65
15,NDDSADYQHFLQDCVDGYFKEVKE,3.71
16,NDDSADYQHFLQDCVDGPFKEVKE,4.93
17,NDDSADYQHFLQDCVDGNFKEVKE,5.43
18,NDDSADYQHFLQDCVDGQFKEVKE,5.2
19,NDDSADYQHFLQDCVDGFFKEVKE,3.33

row,Variant,protein stability index
1,NDDSADYQHFPQDCVDGLFKEVKE,4.51
2,NDDSADYQHFLGDCVDGLFKEVKE,4.34
3,NDDSADYQHFLQDCVDELFKEVKE,2.41
4,NDDSADYQHFLQDCVDCLFKEVKE,1.71
5,NDDSADYQHFLQDCVDPLFKEVKE,4.92
6,NDDSADYQHFLQDCVDGLFKEVIE,1.9
7,NDDSADYQHFLQDCVDGLFKEVPE,4.57
8,NDDSADYQHFLQDCVDGLFKEVDE,4.98
9,NDDSAAYQHFLQDCVDGLFKEVKE,2.32
10,NDDSALYQHFLQDCVDGLFKEVKE,2.03
11,NDDSACYQHFLQDCVDGLFKEVKE,2.8
12,NDDSAVYQHFLQDCVDGLFKEVKE,2.24
13,NDDSADYQHFLQDCVDGLFKEVKA,2.17
14,NDDWADYQHFLQDCVDGLFKEVKE,2.26
15,NDDFADYQHFLQDCVDGLFKEVKE,2.26
16,NDDSADYQHFLQDCVDGLFKEGKE,5.01
17,NDDSADYQHFLQDCVDGLFKEYKE,4.05
18,NDDSADYQHFLQDCVDGLFKEFKE,3.84
19,YDDSADYQHFLQDCVDGLFKEVKE,2.73

row,Variant,protein stability index
1,DDDSADYQHFLQDCVDGLFKEVKE,1.72
2,TDDSADYQHFLQDCVDGLFKEVKE,2.6
3,NDDSADYQHFLQTCVDGLFKEVKE,2.16
4,NDDSADYQHFLQMCVDGLFKEVKE,2.34
5,NDDSLDYQHFLQDCVDGLFKEVKE,2.73
6,NDDSVDYQHFLQDCVDGLFKEVKE,2.02
7,NDDSKDYQHFLQDCVDGLFKEVKE,2.93
8,NDDSDDYQHFLQDCVDGLFKEVKE,2.42
9,NDDSADYQHQLQDCVDGLFKEVKE,3.16
10,NDDSADYQHYLQDCVDGLFKEVKE,2.75
11,NDDSADYQHDLQDCVDGLFKEVKE,5.1
12,NDRSADYQHFLQDCVDGLFKEVKE,1.79
13,NDHSADYQHFLQDCVDGLFKEVKE,2.17
14,NDASADYQHFLQDCVDGLFKEVKE,2.77
15,NDDSADYQHFLQDCVDGLFVEVKE,3.56
16,NDDSADYQHFLQDCVDGLFAEVKE,3.35
17,NDDSADYQHFLQDCVDGLKKEVKE,5.25
18,NDDSADYQHFLQDCVDGLDKEVKE,5.61
19,NDDSADYQHFLQDCVDGLWKEVKE,2.96
